Legend:
[1] = system: CD39 mutants (Table 1) expressed in Hek-293T cells; experiment: Epitope mapping: flow cytometry binding to CD39 mutants in Hek-293T cells; parameters: species or system human
Procedure: CD39 mutants were generated by PCR. The sequences amplified were run on agarose gel and purified using the Macherey Nagel PCR Clean-Up Gel Extraction kit (reference 740609). The purified PCR products generated for each mutant were then ligated into an expression vector, with the ClonTech InFusion system. The vectors containing the mutated sequences were prepared as Miniprep and sequenced. After sequencing, the vectors containing the mutated sequences were prepared as Midiprep using the Promega PureYield™ Plasmid Midiprep System. HEK293T cells were grown in DMEM medium (Invitrogen), transfected with vectors using Invitrogen's Lipofectamine 2000 and incubated at 37° C. in a […] incubator for 48 hours prior to testing for transgene expression. The targeted amino acid mutations in the table 1 below are shown using numbering of SEQ ID NO: 1.
In order to define the epitopes of anti-CD39 antibodies, we designed CD39 mutants defined by substitutions of amino acids exposed at the molecular surface over the surface of CD39.
Mutant 5 contains amino acid substitutions at residues Q96, N99, E143 and R147.
Mutants were transfected in Hek-293T cells, as shown in the table 1, using numbering of SEQ ID NO: 1. […] Mutant 19 includes substitutions at residues R138, M139 and E142.
Mutants were transfected in Hek-293T cells, as shown in the table 1, using numbering of SEQ ID NO: 1. […]

[2] = biological target: T1, soluble recombinant human CD39 protein (Homo sapiens, UniProt P49961); experiment: Inhibition of the enzymatic activity of soluble CD39 (Cell Titer Glo); format: biochemical; conditions: result in words
T1 construct: made in house; host or cells: CHO cells
T1 sequence (P49961 with tags, fused parts or gaps): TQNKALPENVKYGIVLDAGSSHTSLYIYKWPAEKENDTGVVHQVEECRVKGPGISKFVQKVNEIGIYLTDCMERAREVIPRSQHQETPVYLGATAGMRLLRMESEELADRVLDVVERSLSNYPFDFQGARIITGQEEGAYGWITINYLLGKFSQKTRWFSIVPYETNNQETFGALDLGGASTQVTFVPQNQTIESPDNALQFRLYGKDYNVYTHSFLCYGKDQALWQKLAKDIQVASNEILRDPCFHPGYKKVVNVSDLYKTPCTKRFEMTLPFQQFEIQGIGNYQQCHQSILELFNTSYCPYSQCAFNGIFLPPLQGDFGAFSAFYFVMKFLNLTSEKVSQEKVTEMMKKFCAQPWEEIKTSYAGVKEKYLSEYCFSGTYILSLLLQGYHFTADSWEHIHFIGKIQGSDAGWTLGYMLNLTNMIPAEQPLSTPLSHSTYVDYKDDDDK
Procedure: The inhibition by antibodies of the enzymatic activity of soluble CD39 protein produced was evaluated using Cell Titer Glo™ (Promega, reference G7571) that allows assessment of ATP hydrolysis through use of a reagent that generates a luminescent signal proportional to the amount of ATP present. In this way, inhibition of the soluble-CD39-meidatd ATP hydrolysis can be assessed. Briefly, dose ranges of anti-CD39 antibodies from 100 μg/ml to 6×10^−3 μg/ml were incubated with 400 ng/ml of soluble recombinant human CD39 protein having the amino acid sequence described in the Methods section (SEQ ID NO: 39), for 1 h at 37° C. 20 μM ATP was added to the plates for 30 additional minutes at 37° C. before addition of CTG (Cell Titer Glo) reagent. Emitted light was quantified using an Enspire™ luminometer after a short incubation period of 5 min in the dark. Anti-CD39 antibody efficacy was determined by comparing emitted light in presence of antibody with ATP alone (maximal light emission) and ATP together with soluble CD39 protein (minimal light emission).

inhibition of the enzymatic (ATPase) activity of soluble CD39 protein [2]: inhibition of soluble CD39
B1: I-399: anti-CD39 antibody, VH SEQ ID NO: 27, VL SEQ ID NO: 28 (antibody, listed as Mus musculus, V domains shown)
VH: PVQLQQPGAEVVMPGASVKLSCKASGYTFTSFWMNWMRQRPGQGLEWIGEIDPSDFYTNSNQRFKGKATLTVDKSSSTAYMQLSSLTSEDSAVYFCARGDFGWYFDVWGTGTSVTVSS
VL: EIVLTQSPTTMTSSPGEKITFTCSASSSINSNYLHWYQQKPGFSPKLLIYRTSNLASGVPTRFSGSGSGTSYSLTIGTMEAEDVATYYCQQGSSLPRTFGGGTKLEIK
binding to cells expressing mutant 11 of CD39 ([1]; mutant 11: N371K, L372K, E375A, K376G, V377A and insertion 377V): loss of binding
binding to the other CD39 mutants of Table 1 ([1]; remaining mutants of the 20 generated): without loss of binding to any of the other 20 mutants

Source: patent publication US20190218304A1, “POTENTIATING THE EFFECT OF ATP RELEASE” (INNATE PHARMA, priority 2017, published 2019)
